These results are taken from patent US20240173395A1.

This assay has as its target ZIKV sE-WT protein (Zika virus). The experiment in a line: SPR (BIOCORE8000), sE amine-coupled on CM5 chip, antibody as mobile phase.

In the case of 2A10G6 antibody, the Kd – broadly, a measure of binding affinity in units of concentration – was determined as 9.13 nM.
